Measurements from patent US20210047426A1.

Experiments:
[1] = molecular target: Human CD3ε/δ (soluble recombinant human CD3) (human) (UniProt P07766); test: BIACORE surface plasmon resonance, recombinant human CD3 directly immobilized, 1:1 binding fit
[2] = molecular target: Cynomolgus CD3ε/δ (soluble recombinant cynomolgus monkey CD3) (cynomolgus monkey) (UniProt Q95LI5); test: BIACORE surface plasmon resonance, recombinant cynomolgus monkey CD3 directly immobilized, 1:1 binding fit
[3] = molecular target: Cynomolgus CD3ε/δ (soluble recombinant cynomolgus monkey CD3) (cynomolgus monkey) (UniProt Q95LI5); test: SPR (BIAcore 3000), antigen immobilized on the chip, DART-A injected, 1:1 Langmuir fit, mean of 3 experiments
[4] = molecular target: Human CD3ε/δ (soluble recombinant human CD3) (human) (UniProt P07766); test: as above

Sequence of Cynomolgus CD3ε/δ (soluble recombinant cynomolgus monkey CD3) (cynomolgus monkey) (Q95LI5 22-117, stated change not applied, chain 1 of 2): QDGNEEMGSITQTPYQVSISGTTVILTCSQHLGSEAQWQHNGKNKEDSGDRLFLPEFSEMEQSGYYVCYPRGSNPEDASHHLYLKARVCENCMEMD
Sequence of Cynomolgus CD3ε/δ (soluble recombinant cynomolgus monkey CD3) (cynomolgus monkey) (Q95LI8 22-105, stated change not applied, chain 2 of 2, further chain): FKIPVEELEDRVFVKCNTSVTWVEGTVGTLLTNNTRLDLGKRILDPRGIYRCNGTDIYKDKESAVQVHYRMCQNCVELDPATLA
Sequence of Human CD3ε/δ (soluble recombinant human CD3) (human) (P07766 23-126, stated change not applied, chain 1 of 2): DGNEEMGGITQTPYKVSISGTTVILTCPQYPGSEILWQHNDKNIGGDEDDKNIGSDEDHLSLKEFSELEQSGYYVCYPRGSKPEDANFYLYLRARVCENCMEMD
Sequence of Human CD3ε/δ (soluble recombinant human CD3) (human) (P04234 22-105, stated change not applied, chain 2 of 2, further chain): as the sequence (Q95LI8 22-105, stated change not applied, chain 2 of 2, further chain) above, with V5I, K15N, V20I, T32S, N33D, N34I, A64T, N74S, L83V counted along it

B1: Sequence-Optimized CD123 × CD3 Bi-Specific Diabody (DART-A) (bispecific antibody)
chain 1: QAVVTQEPSLTVSPGGTVTLTCRSSTGAVTTSNYANWVQQKPGQAPRGLIGGTNKRAPWTPARFSGSLLGGKAALTITGAQAEDEADYYCALWYSNLWVFGGGTKLTVLGGGGSGGGGEVQLVQSGAELKKPGASVKVSCKASGYTFTDYYMKWVRQAPGQGLEWIGDIIPSNGATFYNQKFKGRVTITVDKSTSTAYMELSSLRSEDTAVYYCARSHLLRASWFAYWGQGTLVTVSSGGCGGGEVAALEKEVAALEKEVAALEKEVAALEK
chain 2: DFVMTQSPDSLAVSLGERVTMSCKSSQSLLNSGNQKNYLTWYQQKPGQPPKLLIYWASTRESGVPDRFSGSGSGTDFTLTISSLQAEDVAVYYCQNDYSYPYTFGQGTKLEIKGGGSGGGGEVQLVESGGGLVQPGGSLRLSCAASGFTFSTYAMNWVRQAPGKGLEWVGRIRSKYNNYATYYADSVKDRFTISRDDSKNSLYLQMNSLKTEDTAVYYCVRHGNFGNSYVSWFAYWGQGTLVTVSSGGCGGGKVAALKEKVAALKEKVAALKEKVAALKE
A Kd [1] of 12.3 nM, a Kd [2] of 9 nM and a Kd [3] of 9.2 nM were found for B1 in this work. The koff [3] was 0.005 s⁻¹, the kon [3] was 550000 M⁻¹ s⁻¹ and the Kd [4] was 9 nM. The koff [4] was 0.005 s⁻¹ and the kon [4] was 570000 M⁻¹ s⁻¹.
